# Biological target: His-vimentin, purified recombinant, polymerized (UniProt P08670)
# Experiment: co-sedimentation
# Sequence of His-vimentin, purified recombinant, polymerized (P08670 whole entry): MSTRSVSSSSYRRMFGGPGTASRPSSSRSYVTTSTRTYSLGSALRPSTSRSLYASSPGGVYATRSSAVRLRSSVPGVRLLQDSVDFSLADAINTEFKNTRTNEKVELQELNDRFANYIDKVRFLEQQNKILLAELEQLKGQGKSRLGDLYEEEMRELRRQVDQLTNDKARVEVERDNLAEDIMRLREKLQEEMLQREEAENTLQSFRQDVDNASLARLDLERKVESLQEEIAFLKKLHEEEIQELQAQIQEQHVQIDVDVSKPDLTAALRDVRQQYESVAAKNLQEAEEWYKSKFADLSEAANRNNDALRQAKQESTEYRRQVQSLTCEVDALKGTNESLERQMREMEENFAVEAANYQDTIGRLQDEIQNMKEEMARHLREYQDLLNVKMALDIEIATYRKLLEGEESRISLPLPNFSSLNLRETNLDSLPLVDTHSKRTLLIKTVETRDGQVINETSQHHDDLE
substance,measurement,value
"adenomatous polyposis coli (APC), endogenous in rat primary astrocytes, P70478 1-2842",percent of total APC cosedimented,18.5%

# Reference: PMC3563686
